Experimental findings from patent US20250051437A1 (University of California, published 2025) are described below.

One may read the Kd as the constant that tells how readily two partners part at equilibrium. Read a low Kd as a tighter complex. By EC50 is commonly meant the concentration at which the effect is half-maximal.

Test [1] deals with T1, human cadherin-17 (CDH17), endogenously expressed on human cancer cell lines (LS513, SNU-C1, PaTu8988s, … (human, UniProt Q12864 23-832)).
T1 construct: also called LS513 (Colon, CDH17+); HPAF2
Briefly: flow cytometry (iQue) on LS513 cells, 0.2 µg Ab. Background: In flow cytometry, cells or beads pass a laser one at a time.

For test [2], the target named is T2, rat CDH17 fused to moxGFP, overexpressed on HEK293T cells (rat, UniProt P55281 22-827).
T2 construct: whole, on cells; also called HEK293T Rat CDH17mGFP mass pop; rat CDH17-moxGFP
T2 sequence (P55281 22-827): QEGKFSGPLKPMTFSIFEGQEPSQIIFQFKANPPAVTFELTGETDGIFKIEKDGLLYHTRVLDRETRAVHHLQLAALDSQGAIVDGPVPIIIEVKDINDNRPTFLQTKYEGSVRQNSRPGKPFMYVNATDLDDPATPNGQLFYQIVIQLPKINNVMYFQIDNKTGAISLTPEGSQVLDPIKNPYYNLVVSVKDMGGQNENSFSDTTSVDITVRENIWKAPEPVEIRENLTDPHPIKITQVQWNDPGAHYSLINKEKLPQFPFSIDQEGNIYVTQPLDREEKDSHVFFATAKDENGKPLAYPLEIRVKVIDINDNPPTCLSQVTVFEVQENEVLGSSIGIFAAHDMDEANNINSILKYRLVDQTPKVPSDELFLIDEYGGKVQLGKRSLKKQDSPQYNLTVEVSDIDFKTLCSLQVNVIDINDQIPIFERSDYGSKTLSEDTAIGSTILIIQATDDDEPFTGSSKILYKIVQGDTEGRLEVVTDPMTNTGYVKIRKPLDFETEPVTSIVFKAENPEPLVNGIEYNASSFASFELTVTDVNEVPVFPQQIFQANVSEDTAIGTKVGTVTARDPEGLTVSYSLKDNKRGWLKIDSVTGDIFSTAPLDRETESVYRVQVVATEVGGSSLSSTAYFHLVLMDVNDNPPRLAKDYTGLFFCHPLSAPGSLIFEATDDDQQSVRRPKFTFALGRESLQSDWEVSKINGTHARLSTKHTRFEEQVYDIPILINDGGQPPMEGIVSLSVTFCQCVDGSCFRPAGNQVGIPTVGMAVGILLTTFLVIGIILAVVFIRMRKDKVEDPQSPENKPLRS
Briefly: KinExA, cell-based, HEK293T rat CDH17mGFP mass population. On the procedure: (§1) The cell-based antibody affinity (KD) of the anti-CDH17 antibodies was measured by KinExA 4000 (Sapidyne Instrument, Boise, Idaho). Briefly, HEK293T overexpressing CDH17-fluorescent protein fusion (i.e., human CDH17-mGFP, monkey CDH17-mGFP, mouse CDH17-mGFP or rat CDH17-mGFP) were detached with Versene and equilibrated with either 50 pM, 200 pM, 20 nM, or 50 nM antibody in 2% FBS/DMEM at 4° C. overnight. The cell concentration started at 5×10⁶ cells/mL or 1×10⁷ cells/mL and 2-fold serial dilutions were performed up to 10 points. The next day, the cells were centrifuged at 1500 rpm for 10 min and the supernatants were saved. […] In contrast, while the humanized anti-CDH17 antibody, 07-0653-h43, fails to bind mouse CDH17 protein, it binds rat CDH17 protein equally well as to human and monkey CDH17 protein such that its Kp is less than about 1 nM for human, monkey and rat CDH17 proteins with overlapping 95% confidence interval values.

Test [3] concerns the target T3, human CDH17-mGFP fusion protein overexpressed on HEK293T cells (clone G11) (human, UniProt Q12864 23-832).
T3 construct: also called HEK293T CDH17mGFP Clone G11; HEK293T Human CDH17mGFP G11; not shown: mGFP fluorescent protein fused to CDH17
Briefly: KinExA, cell-based, HEK293T human CDH17mGFP G11 (same value as r12). The protocol:
as §1
For orientation: A kinetic exclusion assay measures how much of one partner remains free in solution.

Test [4] addresses T2, rat CDH17 fused to moxGFP, …. The experiment in a line: KinExA, cell-based, HEK293T overexpressing rat CDH17 fusion (FIG. 16). The protocol: as §1
The target of test [5] is T3, human CDH17-mGFP fusion protein …. Briefly: flow cytometry (iQue) on HEK293T CDH17 mGFP clone G11 (human), 1 µg Ab.
Test [6] concerns the target T1, human cadherin-17 (CDH17), endogenously …. The experiment in a line: KinExA, cell-based, SNUC1 cells.
The target in test [7] is T3, human CDH17-mGFP fusion protein …. The experiment in a line: KinExA, cell-based, HEK293T CDH17mGFP clone G11. The protocol:
as §1

The target in test [8] is T1, human cadherin-17 (CDH17), endogenously …. Briefly: flow cytometry (iQue) on SNUC1 cells, 0.2 µg Ab.
The target is the same in test [9]. Briefly: flow cytometry on LS513 cells (CDH17+), 20 µg/ml.
Test [10] shares this target. Briefly: flow cytometry (iQue) on PATU8988S cells, 0.2 µg Ab.
Test [11] shares this target. Briefly: flow cytometry (iQue) on SNUC1 cells, 1 µg Ab.
Test [12] concerns the target T4, recombinant CDH17 extracellular domain (ECD) with 6x His tag (human, UniProt Q12864 23-787).
T4 construct: also called Recombinant CDH17 ECD-6xhis tag
The experiment in a line: ELISA on recombinant CDH17 ECD-6xHis.

Test [13] addresses T1, human cadherin-17 (CDH17), endogenously …. Briefly: flow cytometry (iQue) on LS513 cells, 1 µg Ab.
In test [14] the target is T5, mouse CDH17-mGFP fusion protein overexpressed on HEK293T cells (mouse, UniProt Q9R100 26-827).
T5 construct: also called HEK293T Mouse CDH17mGFP mass; not shown: mGFP fluorescent protein
T5 sequence (Q9R100 26-827): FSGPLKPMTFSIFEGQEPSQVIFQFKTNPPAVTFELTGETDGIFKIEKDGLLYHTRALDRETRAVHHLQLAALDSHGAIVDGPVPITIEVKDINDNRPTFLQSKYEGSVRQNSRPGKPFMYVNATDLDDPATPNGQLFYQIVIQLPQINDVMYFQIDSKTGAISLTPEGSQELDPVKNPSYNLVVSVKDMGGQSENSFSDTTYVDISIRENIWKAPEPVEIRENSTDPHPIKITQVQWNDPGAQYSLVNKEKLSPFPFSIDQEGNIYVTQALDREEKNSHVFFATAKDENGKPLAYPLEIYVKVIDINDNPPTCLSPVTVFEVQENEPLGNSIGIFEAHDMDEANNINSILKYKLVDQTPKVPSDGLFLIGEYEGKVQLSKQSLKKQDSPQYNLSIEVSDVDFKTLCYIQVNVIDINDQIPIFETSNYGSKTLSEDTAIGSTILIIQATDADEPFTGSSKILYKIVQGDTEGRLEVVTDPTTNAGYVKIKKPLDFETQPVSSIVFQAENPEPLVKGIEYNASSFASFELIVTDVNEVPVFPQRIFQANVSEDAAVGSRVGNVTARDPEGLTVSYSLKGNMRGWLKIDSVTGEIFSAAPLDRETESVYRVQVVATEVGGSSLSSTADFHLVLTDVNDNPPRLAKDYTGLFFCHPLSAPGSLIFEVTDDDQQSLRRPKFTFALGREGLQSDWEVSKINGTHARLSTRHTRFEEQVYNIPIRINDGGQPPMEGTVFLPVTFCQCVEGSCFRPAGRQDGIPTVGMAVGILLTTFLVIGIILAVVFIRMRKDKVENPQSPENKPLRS
The experiment in a line: flow cytometry on HEK293T mouse CDH17mGFP mass population, 20 µg/ml.

The target of test [15] is T3, human CDH17-mGFP fusion protein …. The experiment in a line: flow cytometry on HEK293T human CDH17mGFP G11, 20 µg/ml.
In test [16] the target is T2, rat CDH17 fused to moxGFP, …. The experiment in a line: flow cytometry on HEK293T rat CDH17mGFP mass population, 20 µg/ml.
In test [17] the target is T3, human CDH17-mGFP fusion protein …. The experiment in a line: flow cytometry (iQue) on HEK293T CDH17 mGFP clone G11 (human), 0.2 µg Ab.
Test [18] shares this target. Briefly: KinExA, cell-based, HEK293T overexpressing human CDH17-mGFP (FIG. 16). On the procedure:
as §1

Test [19] concerns the target T1, human cadherin-17 (CDH17), endogenously …. Briefly: flow cytometry (iQue) on PATU8988S cells, 1 µg Ab.

B1: humanized anti-CDH17 antibody 07-0653-h43 (antibody, human IgG1, V domains shown)
VH: QVQLVQSGAEVKKPGASVKVSCKASGYTFTDYYMNWVRQAPGQGLEWMGVIYPYSGGIGYAQKFQGRVTMTVDKSTSTAYMELSSLRSEDTAVYYCARGRGDYFGLFDFWGQGTTVTVSS
VL: DIQLTQSPSSLSASVGDRVTITCRATSSLSYIHWYQQKPGKAPKPLIYEISKLASGVPSRFSGSGSGTDYTLTISSLQPEDFATYYCQQWNYPFTFGQGTKLEIK
notes: also called CDH17-653-h43
For the molecule B1, the “Antibody Binding Activity by Flow iQue” value in test [1] was 1.79e+06; in test [5], 191000; in test [8] it was 77200; in test [10] it was 48100; in test [11], 61400; in test [13] it was 1.83e+06. For the same molecule, the “Antibody Binding Activity by Flow iQue” value in test [17] came to 51800; in [19], 52200. Also, the Kd in [2] was 0.535 nM; in test [3], 0.736 nM; in test [4] it was less than 1 nM; in [6] it was 0.206 nM; in [7], 0.736 nM; in test [18], less than 1 nM. For the same molecule, the “Antibody Binding Activity by Flow Cytometry” value in test [9] was 24300. Besides, in test [12], the EC50 is 1.13 nM. Also, the “Cross Reactivity by Flow” value in [14] turned out to be 2460; in test [15], 51800; in [16], 71800.
